Source: patent US20220372155A1 (LYVGEN BIOPHARMA, published 2022)

Key:
[1] = target: T1, human CD40 expressed on CHO cells (human, UniProt P25942 21-277); test: FACS, CHO cells
T1 construct: whole, on cells; also used for the reporter cells over-expressing human CD40; also called cellular CD40; CHO-CD40 cells

[2] = target: T2, human B7H4 expressed on CHO cells (human, UniProt Q7Z7D3 25-282); test: FACS, CHO cells
T2 construct: whole, on cells; also called VCTN1
T2 sequence (looked up): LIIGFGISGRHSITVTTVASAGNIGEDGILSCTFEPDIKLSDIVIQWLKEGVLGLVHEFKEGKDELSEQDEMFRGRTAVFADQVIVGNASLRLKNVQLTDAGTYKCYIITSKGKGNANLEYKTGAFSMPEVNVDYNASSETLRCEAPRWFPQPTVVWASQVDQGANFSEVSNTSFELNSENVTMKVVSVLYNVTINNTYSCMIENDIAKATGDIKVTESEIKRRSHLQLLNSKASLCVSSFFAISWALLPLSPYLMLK

[3] = target: T3, Human CD40 ECD protein (mouse IgG2a Fc tag) (human, UniProt P25942 21-193); test: bridging ELISA, coated B7H4, soluble CD40 ECD-mFc
T3 construct: extracellular domain; also called Human CD40-msFc; human recombinant CD40; not shown: mouse IgG2a Fc tag
T3 sequence (P25942 21-193): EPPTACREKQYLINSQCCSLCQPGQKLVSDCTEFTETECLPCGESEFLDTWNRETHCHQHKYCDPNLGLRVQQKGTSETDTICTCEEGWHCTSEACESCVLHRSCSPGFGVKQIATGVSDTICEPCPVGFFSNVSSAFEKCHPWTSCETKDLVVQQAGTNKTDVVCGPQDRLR
Protocol: Anti-B7H4/CD40 bi-specific antibodies were analyzed by ELISA for their simultaneous binding to recombinant human B7H4 and human CD40. Briefly, human B7H4 protein was diluted and coated onto an ELISA plate with a volume of […] by incubation at 4° C. overnight. The next day, the plate was blocked by PBST-BSA buffer, then serially diluted samples of anti-B7H4/CD40 bi-specific antibodies were pipetted into appropriate wells at 50 μL/well, and the plate was incubated for 1 h followed by Washing. Human CD40 ECD protein (mouse IgG2a Fc tag) was added into the plate at 50 μL/well. After 1-hour incubation at room temperature, HRP-conjugated anti-mouse IgG (H+L) antibody was added into the plate at 100 μL/well. The plate was incubated for 1 hour at room temperature followed by washing. TMB substrate solution was added at 100 μL/well and the color development was stopped by adding 100 uL/well Stop Solution (2N H2SO4). Absorbance at 450 nm and 620 nm was read by Tecan F200 Pro plate reader. GraphPad 7.0, “[Agonist] vs. response—Variable slope (four parameters)” was used to plot the binding data and calculate binding EC50 values.

Measured: binding result

T1 sequence (P25942 21-277): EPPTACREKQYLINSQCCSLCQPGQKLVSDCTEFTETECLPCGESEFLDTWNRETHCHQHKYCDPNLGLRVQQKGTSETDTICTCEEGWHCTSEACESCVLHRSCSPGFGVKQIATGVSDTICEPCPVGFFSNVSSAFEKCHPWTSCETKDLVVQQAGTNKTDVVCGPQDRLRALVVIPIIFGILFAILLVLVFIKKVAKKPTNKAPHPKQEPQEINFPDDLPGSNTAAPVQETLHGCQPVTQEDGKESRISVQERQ

B1: Ly475 (bispecific antibody, human IgG1, kappa)
heavy: EVQLVESGGDLVKPGGSLKLSCAASGFTFSSYGMSWVRQTPDKRLEWVAAISTGGSYTYYPDSVKGRFTISRDTATNTLYLQMSTLKSEDTAMYYCTRRGATGSWFAYWGQGTLVTVSAASTKGPSVFPLAPSSKSTSGGTAALGCLVKDYFPEPVTVSWNSGALTSGVHTFPAVLQSSGLYSLSSVVTVPSSSLGTQTYICNVNHKPSNTKVDKKVEPKSCDKTHTCPPCPAPELLGPSVFLFPPKPKDTLMISRTPEVTCVVVDVSHEDPEVKFNWYVDGVEVHNAKTKPREEQYNSTYRVVSVLTVLHQDWLNGKEYKCKVSNKALPAPIEKTISKAKGQPREPQVYTLPPSREEMTKNQVSLTCLVKGFYPSDIAVEWESNGQPENNYKTTPPVLDSDGSFFLYSKLTVDKSRWQQGNVFSCSVMHEALHNHYTQKSLSLSPGGGGGSGGGGSGGGGSGGGGSQVQLVESGGGLVQPGGSLKLSCATSGFNFNDYFMNWVRQASGKGLEWVGQIRNKNYNYATYYTESLEGRVTISRDDSKNTAYLQMNSLKTEDTAVYYCTSYYYDGFADYFDYWGQGTTVTVSSGGGGSGGGGSGGGGSGGGGSDIQMTQSPSSLSASVGDRVTITCKASQNIYIYLNWYQQKPGKAPKLLIYNTNNLQTGVPSRFSGSGSGTDFTLTISSLQPEDFATYYCLQHSSRRTFGGGTKVEIK
light: DILMTQSPSSMSVSLGDTVSITCHASQGINNNIGWLQRKPGKSFKGLIYHGTNLEDGVPSRFSGSGSGADYSLTISSLESEDFADYYCVQYVQFPRTFGGGTKLEIKRTVAAPSVFIFPPSDEQLKSGTASVVCLLNNFYPREAKVQWKVDNALQSGNSQESVTEQDSKDSTYSLSSTLTLSKADYEKHKVYACEVTHQGLSSPVTKSFNRGEC
notes: Ly361 HC (IgG1 mutated Fc)-TM740 scFv VH-VL + Ly361 LC
binds: all assays above

B2: Ly478 (bispecific antibody, human IgG1, kappa)
heavy: EVQLVESGGDLVKPGGSLKLSCAASGFTFSSYGMSWVRQTPDKRLEWVAAISTGGSYTYYPDSVKGRFTISRDTATNTLYLQMSTLKSEDTAMYYCTRRGATGSWFAYWGQGTLVTVSAASTKGPSVFPLAPSSKSTSGGTAALGCLVKDYFPEPVTVSWNSGALTSGVHTFPAVLQSSGLYSLSSVVTVPSSSLGTQTYICNVNHKPSNTKVDKKVEPKSCDKTHTCPPCPAPELLGPSVFLFPPKPKDTLMISRTPEVTCVVVDVSHEDPEVKFNWYVDGVEVHNAKTKPREEQYNSTYRVVSVLTVLHQDWLNGKEYKCKVSNKALPAPIEKTISKAKGQPREPQVYTLPPSREEMTKNQVSLTCLVKGFYPSDIAVEWESNGQPENNYKTTPPVLDSDGSFFLYSKLTVDKSRWQQGNVFSCSVMHEALHNHYTQKSLSLSPGGGGGSGGGGSGGGGSGGGGSDIQMTQSPSSLSASVGDRVTITCLASEDISNDLAWYQQKPGKAPKLLIYFVDRLLDGVPSRFSGSGSGTDFTLTISSLQPEDFATYYCQQSYKYPPTFGQGTKLEIKGGGGSGGGGSGGGGSGGGGSEVQLVESGGGLVQPGGSLRLSCAASGFTFTNYGLHWVRQAPGKGLEWVSSISPSGGVTYYRDSVKGRFTISRDNSKNTLYLQMNSLRAEDTAVYYCAKPFLGWGGANWIAHWGQGTLVTVSS
light: DILMTQSPSSMSVSLGDTVSITCHASQGINNNIGWLQRKPGKSFKGLIYHGTNLEDGVPSRFSGSGSGADYSLTISSLESEDFADYYCVQYVQFPRTFGGGTKLEIKRTVAAPSVFIFPPSDEQLKSGTASVVCLLNNFYPREAKVQWKVDNALQSGNSQESVTEQDSKDSTYSLSSTLTLSKADYEKHKVYACEVTHQGLSSPVTKSFNRGEC
notes: Ly361 HC (IgG1 mutated Fc)-TM559 (printed TM599) scFv VL-VH + Ly361 LC
binds: all assays above
